Assay results from FireProtDB.
Several values for one entry are separate records, joined by “and”; a condition that tells them apart may be missing. Equal entries are not always repeated.

[1] = Oryctolagus cuniculus, pH 7, Thermal, DSC, Glycerol 20 % v/v, KCl 100 mM, reversible: no, whole UniProt chain shown
[2] = Escherichia coli (strain K12), pH 7.2, 51.8 °C, Thermal, DSC, HEPES 0.05 mM, structure 1ANK
[3] = Escherichia coli (strain K12), pH 7.2, Thermal, DSC, HEPES 0.05 mM, structure 1ANK
[4] = Escherichia coli (strain K12), pH 7.4, Thermal, DSC, HEPES 50 mM, structure 1ANK
[5] = Escherichia coli (strain K12), pH 7.2, Thermal, DSC, HEPES 0.05 mM
[6] = Escherichia coli (strain K12), pH 7.4, Thermal, DSC, HEPES 50 mM
[7] = Methanobacterium formicicum, pH 7.2, 25 °C, GdnHCl, CD, potasssium phosphate 20 mM, KCl 200 mM, reversible: yes
[8] = Escherichia coli (strain K12), pH 7, 10 °C, Urea, CD, Potassium phosphate 50 mM, KCl 100 mM
[9] = Escherichia coli (strain K12), pH 7, 25 °C, GdnHCl, Fluorescence, potassium phosphate 50 mM, KCl 100 M, reversible: yes
[10] = Escherichia coli (strain K12), pH 7, 25 °C, Urea, CD, Potassium phosphate 50 mM, KCl 100 mM
[11] = Escherichia coli (strain K12), pH 7, 25 °C, Urea, Fluorescence, potassium phosphate 50 mM, KCl 100 mM, reversible: yes
[12] = Gallus gallus, pH 7, 25 °C, NaClO4 titration, CD, PIPES 10 mM, NaCl 50 mM, reversible: no
[13] = Saccharomyces cerevisiae (strain ATCC 204508 / S288c), pH 6, 46.5 °C, Thermal, Absorbance, Sodium phosphate 100 mM, reversible: yes, structure 1YCC
[14] = Saccharomyces cerevisiae (strain ATCC 204508 / S288c), pH 6, Thermal, Absorbance, Sodium phosphate 100 mM, reversible: yes, structure 1YCC
[15] = Saccharomyces cerevisiae (strain ATCC 204508 / S288c), pH 7.5, 22 °C, GdnHCl, CD, Tris 20 mM, NaCl 40 mM, structure 1YCC
[16] = Saccharomyces cerevisiae (strain ATCC 204508 / S288c), pH 4.6, 37 °C, Thermal, DSC, Potassium acetate 0.1 M, reversible: yes, structure 1YCC
[17] = Saccharomyces cerevisiae (strain ATCC 204508 / S288c), pH 6, 20 °C, GdnHCl, Fluorescence, Sodium phosphate 0.1 M, reversible: yes, structure 1YCC
[18] = Saccharomyces cerevisiae (strain ATCC 204508 / S288c), pH 6, 20 °C, GdnHCl, Fluorescence, Sodium phosphate 0.1 M, reversible: yes
[19] = Saccharomyces cerevisiae (strain ATCC 204508 / S288c), pH 7, 25 °C, GdnHCl, CD, Tris 20 mM, NaCl 40 mM, reversible: yes
[20] = Saccharomyces cerevisiae (strain ATCC 204508 / S288c), pH 7.5, 22 °C, GdnHCl, CD, Tris 20 mM, NaCl 40 mM
[21] = Homo sapiens, pH 7.4, Thermal, CD, phosphate 10 mM, NaCl 10 mM, transition: 2, structure 2NLU
[22] = Homo sapiens, pH 7.5, Thermal, DSF, Hepes 25mM, NaCl 150mM, structure 6DLO
[23] = Homo sapiens, pH 7.5, Thermal, CD, HEPES 0.8mM, NaCl 6mM, transition: 2, structure 6EW2
[24] = Cyprinus carpio, pH 7.5, Thermal, CD, Sodium phosphate 10 mM, CaCl2 0.00001 M

Chain of Cytochrome c isoform 1 H39P|N58I, P00044 H39P N58I (P00044 whole entry H39P/N58I, canonical isoform): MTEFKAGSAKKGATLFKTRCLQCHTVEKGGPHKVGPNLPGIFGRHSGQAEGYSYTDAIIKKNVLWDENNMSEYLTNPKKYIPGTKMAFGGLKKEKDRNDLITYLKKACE
Chain of Cytochrome c isoform 1 wild type, P00044 (P00044 whole entry, canonical isoform): as the sequence (P00044 whole entry H39P/N58I, canonical isoform) above, with P39H, I58N counted along it
Chain of Cytochrome c isoform 1 G35S|N58I, P00044 G35S N58I (P00044 whole entry G35S/N58I, canonical isoform): as the sequence (P00044 whole entry H39P/N58I, canonical isoform) above, with G35S, P39H counted along it
Chain of Adenylate kinase wild type, P69441 (P69441 whole entry): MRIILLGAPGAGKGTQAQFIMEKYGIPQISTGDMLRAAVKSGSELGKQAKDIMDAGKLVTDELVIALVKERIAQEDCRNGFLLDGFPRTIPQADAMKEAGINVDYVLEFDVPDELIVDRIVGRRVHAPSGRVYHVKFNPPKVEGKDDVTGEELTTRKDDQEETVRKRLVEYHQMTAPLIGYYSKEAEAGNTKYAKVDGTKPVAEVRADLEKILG
Chain of Cytochrome c isoform 1 N58I, P00044 (P00044 whole entry N58I, canonical isoform): as the sequence (P00044 whole entry H39P/N58I, canonical isoform) above, with P39H counted along it
Chain of Cytochrome c isoform 1 P77I, P00044 (P00044 whole entry P77I, canonical isoform): as the sequence (P00044 whole entry H39P/N58I, canonical isoform) above, with P39H, I58N, P77I counted along it
Chain of Parvalbumin beta wild type, P02618 (P02618 whole entry): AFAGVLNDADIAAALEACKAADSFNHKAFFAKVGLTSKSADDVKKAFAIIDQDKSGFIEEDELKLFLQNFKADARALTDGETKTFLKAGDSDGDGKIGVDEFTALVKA
Chain of Cytochrome c isoform 1 C108S, P00044 (P00044 whole entry C108S, canonical isoform): as the sequence (P00044 whole entry H39P/N58I, canonical isoform) above, with P39H, I58N, C108S counted along it
Chain of Cytochrome c isoform 1 P77T, P00044 (P00044 whole entry P77T, canonical isoform): as the sequence (P00044 whole entry H39P/N58I, canonical isoform) above, with P39H, I58N, P77T counted along it
Chain of Cytochrome c isoform 1 N58G|C108A, P00044 N58G C108A (P00044 whole entry N58G/C108A, canonical isoform): as the sequence (P00044 whole entry H39P/N58I, canonical isoform) above, with P39H, I58G, C108A counted along it
Chain of Cytochrome c isoform 1 H32N|H39N|H45Q|C108S, P00044 H32N H39N H45Q C108S (P00044 whole entry H32N/H39N/H45Q/C108S, canonical isoform): as the sequence (P00044 whole entry H39P/N58I, canonical isoform) above, with H32N, P39N, H45Q, I58N, C108S counted along it
Chain of Cytochrome c isoform 1 N58I|C108A, P00044 N58I C108A (P00044 whole entry N58I/C108A, canonical isoform): as the sequence (P00044 whole entry H39P/N58I, canonical isoform) above, with P39H, C108A counted along it
Chain of Cold shock protein CspA wild type, P0A9X9 (P0A9X9 whole entry): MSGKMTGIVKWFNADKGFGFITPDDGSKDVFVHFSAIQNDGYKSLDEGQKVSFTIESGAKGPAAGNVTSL
Chain of Cytochrome c isoform 1 C108A, P00044 (P00044 whole entry C108A, canonical isoform): as the sequence (P00044 whole entry H39P/N58I, canonical isoform) above, with P39H, I58N, C108A counted along it
Chain of Archaeal histone B wild type, P48784 (P48784 whole entry): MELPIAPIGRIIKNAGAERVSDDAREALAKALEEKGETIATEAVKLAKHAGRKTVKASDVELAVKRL
Chain of Creatine kinase B-type wild type, P12277 (P12277 whole entry): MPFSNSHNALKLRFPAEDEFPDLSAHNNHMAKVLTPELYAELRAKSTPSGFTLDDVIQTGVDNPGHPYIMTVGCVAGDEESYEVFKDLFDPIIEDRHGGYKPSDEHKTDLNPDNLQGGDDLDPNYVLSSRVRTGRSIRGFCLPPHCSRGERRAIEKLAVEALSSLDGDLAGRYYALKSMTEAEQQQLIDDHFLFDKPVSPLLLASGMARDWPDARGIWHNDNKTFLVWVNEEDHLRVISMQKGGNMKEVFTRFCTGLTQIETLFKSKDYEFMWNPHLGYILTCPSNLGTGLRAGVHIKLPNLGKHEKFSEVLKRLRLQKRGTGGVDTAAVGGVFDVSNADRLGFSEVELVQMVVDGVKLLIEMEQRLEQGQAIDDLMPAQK
Chain of Cytochrome c V93A, P67881 (P67881 whole entry V93A): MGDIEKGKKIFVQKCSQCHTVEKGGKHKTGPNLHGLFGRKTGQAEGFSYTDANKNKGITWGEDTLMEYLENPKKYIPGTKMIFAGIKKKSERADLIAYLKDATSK
Chain of Endo-1,4-beta-xylanase wild type, Q56013 (Q56013 entry or part of it): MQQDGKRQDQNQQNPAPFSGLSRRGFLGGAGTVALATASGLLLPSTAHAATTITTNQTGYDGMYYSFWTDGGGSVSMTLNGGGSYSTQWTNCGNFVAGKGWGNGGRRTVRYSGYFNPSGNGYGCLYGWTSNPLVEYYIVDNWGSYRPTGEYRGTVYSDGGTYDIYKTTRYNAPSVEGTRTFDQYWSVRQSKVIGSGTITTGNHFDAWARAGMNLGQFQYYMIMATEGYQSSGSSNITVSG
Chain of Hepatoma-derived growth factor P24A, P51858 (P51858 whole entry P24A): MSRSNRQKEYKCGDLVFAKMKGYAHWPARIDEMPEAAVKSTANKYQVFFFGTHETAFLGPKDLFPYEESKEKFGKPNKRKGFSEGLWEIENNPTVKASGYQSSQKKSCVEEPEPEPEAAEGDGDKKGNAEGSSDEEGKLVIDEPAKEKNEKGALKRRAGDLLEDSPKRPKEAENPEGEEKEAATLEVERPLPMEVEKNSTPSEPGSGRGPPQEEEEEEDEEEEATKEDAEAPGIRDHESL
Chain of Cytochrome c V93A|S104A, P67881 V93A S104A (P67881 whole entry V93A/S104A): as the sequence (P67881 whole entry V93A) above, with S104A counted along it
Chain of Hepatoma-derived growth factor wild type, P51858 (P51858 whole entry): as the sequence (P51858 whole entry P24A) above, with A24P counted along it
Chain of Cytochrome c wild type, P67881 (P67881 whole entry): as the sequence (P67881 whole entry V93A) above, with A93V counted along it
Chain of Cytochrome c wild type, P00041 (P00041 whole entry): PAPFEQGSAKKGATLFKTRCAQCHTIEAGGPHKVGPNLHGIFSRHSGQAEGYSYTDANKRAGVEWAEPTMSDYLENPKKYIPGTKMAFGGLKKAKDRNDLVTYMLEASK

AKKVLPLLLPPLVXAALGLAXF [wild type]
Tm [1]: 42.3 °C | unfolding enthalpy (calorimetric) [1]: 1260 kJ/mol

APRLPQCQGDDQEKCLCNKDECPPGQCRFPRGDADPYCE [Decorsin wild type]
Tm (Macrobdella decora, pH 7, Thermal, CD, Na2HPO4 10 mM, reversible: Yes, whole UniProt chain shown): 74 °C

Adenylate kinase D84H, P69441
ddG of mutation (higher = less stable) [2]: 5.86 kJ/mol | Tm [3]: 44.6 °C | change of melting temperature, mutant - wild type (higher = more stable) [3]: -7.2 °C | unfolding enthalpy (calorimetric) [3]: 264 kJ/mol

Adenylate kinase F86L, P69441
ddG of mutation (higher = less stable) [2]: 3.35 kJ/mol | Tm [3]: 49.2 °C | change of melting temperature, mutant - wild type (higher = more stable) [3]: -2.6 °C | unfolding enthalpy (calorimetric) [3]: 406 kJ/mol

Adenylate kinase G85V, P69441
ddG of mutation (higher = less stable) [2]: 10 kJ/mol | Tm [3]: 40.7 °C | change of melting temperature, mutant - wild type (higher = more stable) [3]: -11.1 °C | unfolding enthalpy (calorimetric) [3]: 293 kJ/mol

Adenylate kinase R88G, P69441
ddG of mutation (higher = less stable) (Escherichia coli (strain K12), pH 7.4, 51.8 °C, Thermal, DSC, HEPES 50 mM, structure 1ANK): 0.837 kJ/mol | Tm [4]: 51 °C | change of melting temperature, mutant - wild type (higher = more stable) [4]: -0.8 °C | unfolding enthalpy (calorimetric) [4]: 314 kJ/mol | unfolding enthalpy (van 't Hoff) [4]: 674 kJ/mol

Adenylate kinase wild type, P69441
Tm [5]: 51.8 °C | unfolding enthalpy (calorimetric) [5]: 397 kJ/mol | Tm [6]: 51.8 °C | unfolding enthalpy (calorimetric) [6]: 397 kJ/mol | unfolding enthalpy (van 't Hoff) [6]: 661 kJ/mol

Archaeal histone B wild type, P48784
denaturant m value [7]: 3.4 kcal/mol/M | unfolding free energy [7]: 23.8 kJ/mol and 45.2 kJ/mol

Cold shock protein CspA wild type, P0A9X9
denaturant m value [8]: 0.59 kcal/mol/M | denaturant midpoint (higher = more stable) [8]: 4.95 M | unfolding free energy [8]: 12.2 kJ/mol | denaturant m value [9]: 2.2 kcal/mol/M | denaturant midpoint (higher = more stable) [9]: 1.4 M | unfolding free energy [9]: 13 kJ/mol | denaturant m value [10]: 0.71 kcal/mol/M | denaturant midpoint (higher = more stable) [10]: 4.2 M | unfolding free energy [10]: 12.6 kJ/mol | denaturant m value [11]: 0.71 kcal/mol/M | denaturant midpoint (higher = more stable) [11]: 4.2 M | unfolding free energy [11]: 12.6 kJ/mol | Tm (Escherichia coli (strain K12), pH 7, Thermal, CD, potassium phosphate 50 mM, KCl 100 M, reversible: yes): 59 °C

Creatine kinase B-type wild type, P12277
Tm (Homo sapiens, pH 8, Thermal, CD, Tris-HCl, transition: 2, reversible: No): 47.3 °C | Tm (Homo sapiens, pH 8, Thermal, Fluorescence, Tris-HCl, transition: 2, reversible: No): 45.7 °C

Cytochrome c V93A, P67881
ddG of mutation (higher = less stable) [12]: 1.09 kJ/mol | unfolding free energy [12]: 20.5 kJ/mol

Cytochrome c V93A|S104A, P67881 V93A S104A
ddG of mutation (higher = less stable) [12]: 1.09 kJ/mol | unfolding free energy [12]: 20.5 kJ/mol

Cytochrome c isoform 1 C108A, P00044
ddG of mutation (higher = less stable) [13]: -12.1 kJ/mol | heat capacity change of unfolding [13]: 2 kcal/mol/K | Tm [14]: 58.1 °C | change of melting temperature, mutant - wild type (higher = more stable) [14]: 11.6 °C | heat capacity change of unfolding [14]: 2 kcal/mol/K | unfolding enthalpy (van 't Hoff) [14]: 372 kJ/mol

Cytochrome c isoform 1 C108S, P00044
ddG of mutation (higher = less stable) [13]: -11.7 kJ/mol | heat capacity change of unfolding [13]: 2 kcal/mol/K | Tm [14]: 57.8 °C | change of melting temperature, mutant - wild type (higher = more stable) [14]: 11.3 °C | heat capacity change of unfolding [14]: 2 kcal/mol/K | unfolding enthalpy (van 't Hoff) [14]: 364 kJ/mol

Cytochrome c isoform 1 G35S|N58I, P00044 G35S N58I
ddG of mutation (higher = less stable) [13]: 6.28 kJ/mol | heat capacity change of unfolding [13]: 2 kcal/mol/K | Tm [14]: 40.3 °C | change of melting temperature, mutant - wild type (higher = more stable) [14]: -6.2 °C | heat capacity change of unfolding [14]: 2 kcal/mol/K | unfolding enthalpy (van 't Hoff) [14]: 243 kJ/mol

Cytochrome c isoform 1 H32N|H39N|H45Q|C108S, P00044 H32N H39N H45Q C108S
ddG of mutation (higher = less stable) [15]: 4.39 kJ/mol | denaturant m value [15]: 3.83 kcal/mol/M | denaturant midpoint (higher = more stable) [15]: 1.04 M | unfolding free energy [15]: 16.7 kJ/mol

Cytochrome c isoform 1 H39P|N58I, P00044 H39P N58I
ddG of mutation (higher = less stable) [13]: 3.35 kJ/mol | heat capacity change of unfolding [13]: 2 kcal/mol/K | Tm [14]: 43.1 °C | change of melting temperature, mutant - wild type (higher = more stable) [14]: -3.4 °C | heat capacity change of unfolding [14]: 2 kcal/mol/K | unfolding enthalpy (van 't Hoff) [14]: 255 kJ/mol

Cytochrome c isoform 1 N58G|C108A, P00044 N58G C108A
ddG of mutation (higher = less stable) [13]: -3.77 kJ/mol | heat capacity change of unfolding [13]: 2 kcal/mol/K | Tm [14]: 50.1 °C | change of melting temperature, mutant - wild type (higher = more stable) [14]: 3.6 °C | heat capacity change of unfolding [14]: 2 kcal/mol/K | unfolding enthalpy (van 't Hoff) [14]: 209 kJ/mol

Cytochrome c isoform 1 N58I, P00044
unfolding free energy (Saccharomyces cerevisiae (strain ATCC 204508 / S288c), pH 4.6, 27 °C, GdnHCl, CD, Sodium acetate 50 mM, reversible: yes, structure 1YCC): 28.5 kJ/mol and 75.3 kJ/mol | ddG of mutation (higher = less stable) [16]: -13.1 kJ/mol | unfolding free energy [16]: 30 kJ/mol | ddG of mutation (higher = less stable) [13]: -18 kJ/mol | heat capacity change of unfolding [13]: 2 kcal/mol/K

Cytochrome c isoform 1 N58I|C108A, P00044 N58I C108A
ddG of mutation (higher = less stable) [13]: -25.9 kJ/mol | heat capacity change of unfolding [13]: 2 kcal/mol/K | Tm [14]: 71.5 °C | change of melting temperature, mutant - wild type (higher = more stable) [14]: 25 °C | heat capacity change of unfolding [14]: 2 kcal/mol/K | unfolding enthalpy (van 't Hoff) [14]: 481 kJ/mol

Cytochrome c isoform 1 P77I, P00044
ddG of mutation (higher = less stable) [17]: 7.11 kJ/mol | denaturant midpoint (higher = more stable) [17]: 0.72 M | unfolding free energy [17]: 7.95 kJ/mol

Cytochrome c isoform 1 P77T, P00044
ddG of mutation (higher = less stable) [17]: 7.11 kJ/mol | denaturant midpoint (higher = more stable) [17]: 0.72 M | unfolding free energy [17]: 7.95 kJ/mol

Cytochrome c isoform 1 wild type, P00044
unfolding free energy (Saccharomyces cerevisiae (strain ATCC 204508 / S288c), pH 4.6, 25 °C, Thermal, Absorbance, Sodium acetate 100 mM, reversible: yes): 22.2 kJ/mol | unfolding free energy (Saccharomyces cerevisiae (strain ATCC 204508 / S288c), pH 4.6, 25 °C, Thermal, CD, Sodium acetate 100 mM, reversible: yes): 22.2 kJ/mol | unfolding free energy (Saccharomyces cerevisiae (strain ATCC 204508 / S288c), pH 4.6, 27 °C, GdnHCl, CD, Sodium acetate 50 mM, reversible: yes): 23.4 kJ/mol and 62.8 kJ/mol | denaturant midpoint (higher = more stable) [18]: 1.07 M | unfolding free energy [18]: 15.1 kJ/mol | unfolding free energy (Saccharomyces cerevisiae (strain ATCC 204508 / S288c), pH 6, 25 °C, Thermal, Absorbance, Sodium phosphate 100 mM, reversible: yes): 15.9 kJ/mol | denaturant m value [19]: 3.71 kcal/mol/M | denaturant midpoint (higher = more stable) [19]: 1.06 M | unfolding free energy [19]: 16.4 kJ/mol | denaturant m value [20]: 4.24 kcal/mol/M | denaturant midpoint (higher = more stable) [20]: 1.19 M | unfolding free energy [20]: 21.1 kJ/mol

Cytochrome c wild type, P00041
unfolding free energy (Pichia kudriavzevii, pH 6.5, 25 °C, GdnHCl, CD, HCl 0.1 M, reversible: yes): 58.6 kJ/mol

Cytochrome c wild type, P67881
unfolding free energy [12]: 21.6 kJ/mol

Endo-1,4-beta-xylanase wild type, Q56013
Tm (Streptomyces sp. EC3, pH 6, Thermal, CD, Sodium phosphate 25 mM, reversible: no): 56.8 °C | Tm (Streptomyces sp. EC3, pH 6, Thermal, Fluorescence, Sodium phosphate 25 mM, reversible: no): 61.1 °C

Hepatoma-derived growth factor P24A, P51858
Tm [21]: 40 °C | change of melting temperature, mutant - wild type (higher = more stable) [21]: -7 °C

Hepatoma-derived growth factor wild type, P51858
Tm (Homo sapiens, pH 7.4, Thermal, CD, phosphate 10 mM, NaCl 10 mM, transition: 2): 47 °C

Leucine-rich repeat serine/threonine-protein kinase 2, Q5S007 G2385R
Tm [22]: 31.3 °C | change of melting temperature, mutant - wild type (higher = more stable) [22]: 0.33 °C

Myelin P2 protein (from UniProt P02689) I52T
change of melting temperature, mutant - wild type (higher = more stable) [23]: -13 °C | ddG of mutation (higher = less stable) [23]: 21.6 kJ/mol

Myelin P2 protein (from UniProt P02689) T51P
change of melting temperature, mutant - wild type (higher = more stable) [23]: -24 °C | ddG of mutation (higher = less stable) [23]: 6.32 kJ/mol

Parvalbumin beta wild type, P02618
Tm [24]: 90 °C | heat capacity change of unfolding [24]: 1.1 kcal/mol/K | unfolding enthalpy (calorimetric) [24]: 500 kJ/mol | Tm (Cyprinus carpio, pH 7.5, Thermal, CD, Sodium phosphate 10 mM, EDTA 5 mM): 32 °C | Tm (Cyprinus carpio, pH 7.5, Thermal, CD, Sodium phosphate 10 mM, NaCl 2 M): 55 °C
